The record followed here is the supplement of paper PMC7125110.

First the molecules themselves.
B1: glmS ribozyme (parent)
chain: AUAAAAGCGCCAGAACUACAGAAAUGUAGUUGACGAGGAGGAGGUUUAUCGAAUUUUCGGCGGAUGCCUCCAAA

± gives the standard error. For part of these data: Variants at the floor of the assay were thinned out.

Holding throughout (conditions): with glucosamine-6-phosphate
Variants of B1 are the subject of series [1]. As to the kind of experiment: kcat; higher = faster cleavage; RNA array. The method in brief: (§1)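 Tiles bearing barcoded ribozyme variants, transcribed in situ by E. coli RNA polymerase on sequenced MiSeq chips, were imaged over ~14 h at 37 °C using a hybridised Cy3 probe. Glucosamine-6-phosphate was supplied at 40 μM to 10 mM in HEPES/KCl/Mg(OAc)2 buffer. kobs came from one- or two-exponential decay fits to normalised per-tile medians, and weighted Michaelis–Menten fits then provided kcat and KM.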

In series [2] the parent is B1. As to the kind of experiment: KM; higher = weaker cofactor use; RNA array. The method in brief: as §1
Variants of B1 are the subject of series [3]. Briefly: self-cleavage kobs at 40 uM GlcN6P; higher = faster cleavage; RNA array. The method in brief: as §1
Variants of B1 are the subject of series [4]. As to the kind of experiment: self-cleavage kobs at 640 uM GlcN6P; higher = faster cleavage; RNA array. The method in brief: as §1
Series [5] covers variants of B1. Briefly: self-cleavage kobs at 160 uM GlcN6P; higher = faster cleavage; RNA array. The method in brief:
as §1

Variants of B1 are the subject of series [6]. Briefly: self-cleavage kobs at 2500 uM GlcN6P; higher = faster cleavage; RNA array. The method in brief: as §1
Series [7] covers variants of B1. Briefly: self-cleavage kobs at 10000 uM GlcN6P; higher = faster cleavage; RNA array. A digest of the protocol:
as §1

As to AUAAAAGCGCCAGAACUAAAGAAAUGUAGUUGACGAGGAGGGGGUUUAUCGAAUUUUCGGCGGAUGCCUCCAAA [C19A A42G], the kcat in series [1] came to 0.00828 ± 0.0016 s⁻¹. Besides, the KM in series [2] was 164 ± 59 µM. Besides, the “self-cleavage kobs at 40 uM GlcN6P” value in series [3] is 0.00166 ± 0.00056 s⁻¹. Also, the “self-cleavage kobs at 640 uM GlcN6P” value in series [4] is 0.00596 ± 0.0022 s⁻¹.

As to AUAAAAGCGCCAGAACUACAGAAAUGUAGUUGACGAGGAGGAGGUUUAUCGAAUUUUCGGCGGUUAUCUCCAAA [A64U G66A C67U], in series [1], the kcat came to 1.79e-05 ± 6.9e-06 s⁻¹. Further, the “self-cleavage kobs at 40 uM GlcN6P” value in series [3] is under 1e-05 s⁻¹.

For AUAAAAGCGCCAGAACUACAGAAAUGUAUUUGACGAGGAGGAGGUUUAUCGAAUUUUCGGCGGAUGGCUCCAAA [G29U C67G], in series [1], the kcat came out at 0.000311 ± 6.2e-05 s⁻¹. Also, the KM in series [2] turned out to be 3390 ± 1100 µM. Moreover, in series [5], the “self-cleavage kobs at 160 uM GlcN6P” value came out at 2.38e-05 ± 1e-05 s⁻¹. In addition, the “self-cleavage kobs at 640 uM GlcN6P” value in series [4] amounted to 5.43e-05 ± 5.8e-06 s⁻¹. Further, the “self-cleavage kobs at 2500 uM GlcN6P” value in series [6] came out at 0.000111 ± 1.3e-05 s⁻¹. Besides, the “self-cleavage kobs at 10000 uM GlcN6P” value in series [7] was 0.000251 ± 2.4e-05 s⁻¹.

Turning to AUAAAAGCGCCAGAACUACAGAAAUGUAGUUGACGAGGAGGAGGUUUAUCGAAUUUUCGGCGGAUGUGUCCAAA [C67U C68G], the kcat in series [1] was found to be 2.52e-05 ± 6.7e-06 s⁻¹. Further, in series [4], the “self-cleavage kobs at 640 uM GlcN6P” value was determined as 3.49e-05 ± 1.2e-05 s⁻¹. Moreover, in series [6], the “self-cleavage kobs at 2500 uM GlcN6P” value came to 2.57e-05 ± 1.2e-05 s⁻¹.

For the variant AUAAAAGCGCCAGAACUACAGAAAUGUAGUUGACGCGGAGGAGGUCUAUCGAAUUUUCGGCGGAUGCCUCCAAA [A36C U46C], the catalytic constant (kcat) in series [1] is under 1e-05 s⁻¹. Also, the “self-cleavage kobs at 40 uM GlcN6P” value in series [3] is under 1e-05 s⁻¹. In addition, in series [4], the “self-cleavage kobs at 640 uM GlcN6P” value is under 1e-05 s⁻¹. Besides, in series [7], the “self-cleavage kobs at 10000 uM GlcN6P” value was under 1e-05 s⁻¹.

AUAAAAGCGCCAGAACUACAGAAAUGUAGUGGACGAGGAGGUGGUUUAUCGAAUUUUCGGCGGAUGCCUCCAAA [U31G A42U]: in series [1], the kcat was 5.2e-05 ± 1.3e-05 s⁻¹. For the same variant, in series [6], the “self-cleavage kobs at 2500 uM GlcN6P” value is 2.29e-05 ± 1.1e-05 s⁻¹. The “self-cleavage kobs at 10000 uM GlcN6P” value in series [7] was 4.27e-05 ± 1.1e-05 s⁻¹.

With AUAAAAGCGCCAGAACUACAGAAAUGUAGUUGACGAGGUGGAGGUUUAUCGAAUUUUCGGCAGAUGCCUCCAAA [A39U G62A], the kcat in series [1] is under 1e-05 s⁻¹. Further, the “self-cleavage kobs at 40 uM GlcN6P” value in series [3] was under 1e-05 s⁻¹. Further, the “self-cleavage kobs at 160 uM GlcN6P” value in series [5] is under 1e-05 s⁻¹. Moreover, the “self-cleavage kobs at 640 uM GlcN6P” value in series [4] is under 1e-05 s⁻¹.

With AUAAAAGCGCCAGAACUACAGAAAUGUAGUGGACGAAGAGGAGGUUUAUCGAAUUUUCGGCGGAUGCCUCCAAA [U31G G37A], the kcat in series [1] was found to be 0.00148 ± 0.00038 s⁻¹. The KM in series [2] stood at 5250 ± 1900 µM. Further, in series [5], the “self-cleavage kobs at 160 uM GlcN6P” value came to 6.42e-05 ± 1.6e-05 s⁻¹. In addition, the “self-cleavage kobs at 640 uM GlcN6P” value in series [4] is 0.000144 ± 2.8e-05 s⁻¹. For the same variant, in series [6], the “self-cleavage kobs at 2500 uM GlcN6P” value was 0.000466 ± 7.3e-05 s⁻¹. Further, in series [7], the “self-cleavage kobs at 10000 uM GlcN6P” value was 0.000999 ± 0.00019 s⁻¹.

As to AUAAAAGCGCCCGAACUACAGAAAUGUAGUUGACGAGGCGGAGGUUUAUCGAAUUUUCGGCGGAUGCCUCCAAA [A12C A39C], the kcat in series [1] was 0.000611 ± 4.3e-05 s⁻¹. Moreover, the KM in series [2] came out at 2060 ± 260 µM. For the same variant, in series [3], the “self-cleavage kobs at 40 uM GlcN6P” value was found to be 1.91e-05 ± 9.4e-06 s⁻¹. Besides, the “self-cleavage kobs at 160 uM GlcN6P” value in series [5] worked out at 3.75e-05 ± 7.9e-06 s⁻¹. In addition, the “self-cleavage kobs at 640 uM GlcN6P” value in series [4] was determined as 0.000149 ± 1.2e-05 s⁻¹. In series [6], the “self-cleavage kobs at 2500 uM GlcN6P” value was found to be 0.000343 ± 3e-05 s⁻¹. For the same variant, the “self-cleavage kobs at 10000 uM GlcN6P” value in series [7] was found to be 0.000499 ± 4.2e-05 s⁻¹.

For orientation: kcat means the maximal rate divided by the concentration of active sites. In general, KM refers to the substrate concentration at which the rate is half of its maximum.
